US20070271623A1 (UNIVERSITY OF COPENHAGEN, published 2007)

Assays:
[1] = target: T1, mutant MKS1-S30A C3-truncation (histidine-tagged)
T1 chain: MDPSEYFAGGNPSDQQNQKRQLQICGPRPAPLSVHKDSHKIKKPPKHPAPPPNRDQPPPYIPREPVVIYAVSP

[2] = target: T2, mutant full-length MKS1-S30A (histidine-tagged)
T2 chain: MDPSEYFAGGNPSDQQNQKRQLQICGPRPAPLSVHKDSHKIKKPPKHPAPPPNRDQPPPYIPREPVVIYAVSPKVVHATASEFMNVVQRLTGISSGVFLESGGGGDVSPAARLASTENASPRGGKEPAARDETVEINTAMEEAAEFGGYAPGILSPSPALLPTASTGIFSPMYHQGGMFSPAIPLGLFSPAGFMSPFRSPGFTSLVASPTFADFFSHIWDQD

B1: HA (influenza hemagglutin antigen)-tagged MPK4 (protein)
chain: YPYDVPDYAYPYDVPDYAYPYDVPDYAYPYDVPDYAYPYDVPDYAYPYDVPDYAMSAESCFGSSGDQSSSKGVATHGGSYVQYNVYGNLFEVSRKYVPPLRPIGRGAYGIVCAATNSETGEEVAIKKIGNAFDNIIDAKRTLREIKLLKHMDHENVIAVKDIIKPPQRENFNDVYIVYELMDTDLHQIIRSNQPLTDDHCRFFLYQLLRGLKYVHSANVLHRDLKPSNLLLNANCDLKLGDFGLARTKSETDFMTEYVVTRWYRAPELLLNCSEYTAAIDIWSVGCILGETMTREPLFPGKDYVHQLRLITELIGSPDDSSLGFLRSDNARRYVRQLPQYPRQNFAARFPNMSAGAVDLLEKMLVFDPSRRITVDEALCHPYLAPLHDINEEPVCVRPFNFDFEQPTLTEENIKELIYRETVKFNPQDSV
[1]
  in vitro phosphorylation assay (32P-γ-ATP, SDS-PAGE, phosphorimager): the mutant C3 truncated MKS1 (C3-S30A) was not phosphorylated by HA-tagged MPK4
[2]
  in vitro phosphorylation assay (32P-γ-ATP, SDS-PAGE, phosphorimager): the mutant full-length MKS1 (S30A) was phosphorylated
